From the supplement of paper PMC9170038

test system: K4 kissing-loop RNA reporter; experiment: apparent KD of K4 kissing-loop reporter; higher = weaker reporter binding; details: Eterna round: R107; input ligand: tryptophan 2.4 mM
Experimental: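 RNA-MaP round R107: designed RNA switches with theophylline, tryptophan, arginine or FMN aptamers are transcribed on-chip within common flanks. They are titrated with a labelled K4 kissing-loop RNA reporter in RNA-MaP buffer (100 mM Tris pH 7.5, 80 mM KCl, 4 mM MgCl2), without ligand or with the indicated ligand. Median apparent KD per design.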
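Note: bound reporter read as fluorescence of individual clusters on recovered sequencing chips by microscopy, with normalized cluster intensities fitted with a binding model.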

Going from “GAAGGUCAAAGACCUUCGUGCACACCUGAUACCAGUCGCGAAAGCGACCCUUGGCAGCAGGGUAGUGAUGUUGCCAGUGCACAAA [#14 K4 Theophylline A Same State]” to “UUCAGGUGUUCGGCCGCCACUCCAGUGAUGUUGGAGUGGCUUCACAAGGACCAGGACAAUGUAAGGAGGACCGGGAAUAUCUCAG [Vequleat]”, the “apparent KD of K4 kissing-loop reporter” value falls from 732 nM to 118 nM (6.2-fold).

Compared with “GUAGCUAAAGAAGGAUAUCGGAUCCAAAUCAAGCAGUGAUGUUGCGUGAAGAUCGGCUCCAUGCCGCGAGAAGGUCUUUUCUGUU [theeternabot_sameState_KL_FMN_B_18]”, “AAUACUAUCAGAAGGAGCGUGGAAUAUUCAUCUGUAUCUAAUACGAGUGAUGUUCGUAAUUCACAGGUAGGUCGCUGAUUAAUAA [whbob_Ex_Arginine_B_2th157]” is 1.6-fold higher in “apparent KD of K4 kissing-loop reporter” value: 147 nM for the first, 231 nM for the second.

Going from “UGACUGGACUGAAGGAGCGAGCGAGACAAAGUCUCGAAUUUUCAGUGAUGUUGAUAUAUAACUCAGGUAGGUCGCAGUCUAGUCU [ArgBS 8 #SwitchBubble #StaticStem]” to “UUAGCAGUAUACUGCAAGACCUAUACUGAUACCAGAGUCAAUUGACUCCCUUGGCAGCGGAUCGAGUGAUGUUCGUAAGGUCAUU [AK4.2 SS Theophylline A]”, the “apparent KD of K4 kissing-loop reporter” value rises from 441 nM to 685 nM (1.6-fold).

Going from “GGUGCGGGCUCGGCCGCCACUCCCGCGGGUCGUAAGGUCCGCUACUGAGUGAUGUUCGGUUGGAGGAGGACCGGGAGCCCGUGCC [#2 Exclusion - Tryptophan B Attempt #19 (HarryS)]” to “AACCAGCUUACUGUAAGCUGGUUGCUGGAUACCAGCUCGGAAACGAGCCCUUGGCAGCCAGAACUUGCAGUGAUGUUGCAAGUAA [Design11]”, the “apparent KD of K4 kissing-loop reporter” value rises from 106 nM to 216 nM (2-fold).

“GUUGGGUGGGUUAAAGAAUUUGUCUGACAACGAGGACCGGUACGGCCGCCACUCGAGUGAUGUUCGAGAAGAAAGAAAGAAAGAA” and “AACGGCCAGUCGGCCGCCACUCCAAGCAGUGAUGUUGCUAAGUUUCUAAAAGAGUGAUGUUCUUAGAGGACCGGGACUGAUGUAA [Exclusion Tryptophan B Gf 6]” are within 1.5-fold of each other in “apparent KD of K4 kissing-loop reporter” value: 126 nM for the first, 104 nM for the second.

Compared with “AAUUUUAAUAAUAAAUAAUAAAUAAAUGAUACCAGUAUUUUUUUUUACCCUUGGCAGCAUAUAUAAGGGCAGUGAUGUUGCCAAA [Same State - Theophylline A]”, “AGUGAUAUAUGAGGAUAUGGGUUUGUUAAUGAGUUAGUUUUAGUGUUGUUUGGUUAGUGAUGUUAUUUAGAAGGCGUGAGUGAUG [vkkjkjmullin]” is 1.8-fold lower in “apparent KD of K4 kissing-loop reporter” value: 131 nM for the first, 72.8 nM for the second.

First: UAUGGAGUGAUGUUCCGUAUGACUGUCGAUACCAGCCUGUGCCUUGGCCCUUGGCAGCGAAAAGCAUCGGCUAAUGUCGCGUCAU [Onaraed]
Second: UCAAGAGAACUUAAAUUUGAUCAACGCUCGCGAGGACCGGUACGGCCGCCACUCGACCGUUAGUGCCUCAUCCAGUGAUGUUGGG [theeternabot_sameState_KL_Trp_A_6]
The “apparent KD of K4 kissing-loop reporter” value of the first is 2.6-fold lower: 184 nM for the first, 476 nM for the second.

Going from “AUCGUUGUCUGAGGAUAUCGAUUAACUGUAGUGAUGUUACAGAAAAUUCAUAUAAUAUUUUCUAUUCGAGAAGGCAGACUACGUA [JR_ExcFMNB_Sub017]” to “AAGAGCUAGGCGGCCGCCACUAGAUGUGAACACAUACAAGCCAGUGAUGUUGGUAUGAUGGACAGUAGGACCGGGCCUAGCUGAA [Exclusion - Tryptophan B (Freestyle 9)]”, the “apparent KD of K4 kissing-loop reporter” value rises from 144 nM to 421 nM (2.9-fold).

Going from “AGACUACCACACUGUCAAUAGACAGUGAACUAGGAUAUGCUGAUAAGCAGAAGGAGUGAUGUUCCUAGGUAGUCAAUAAAAUAAU [FmnAX 13 #SwitchBubble #StaticStem #K4Early]” to “GGCUUGCCAGUGAUGUUGGCAUAUUCUGAAGGAGCGCGUGAAAACGCAGGUAGGUCGCAGAACCUUGCCAACUAUUUUAGUUGCC [Ex Arginine A K4 26]”, the “apparent KD of K4 kissing-loop reporter” value falls from 401 nM to 210 nM (1.9-fold).

“CUAUCCCGCCGUGUACGUAAUAUACGGUGCCGAGGACCGGUACGGCCGCCACUCGAUAAGCUUUGUCGGAGUGAUGUUCCGACCG [Maais]” and “GCACUCGAAAGAGUGCCUCUCGCCAUCACGUAGGAUAUCUGGAAACAGAGAAGGAUGGCAGUGAUGUUGCUUUCGAUGGCGAGAG” are within 1.5-fold of each other in “apparent KD of K4 kissing-loop reporter” value: 202 nM for the first, 188 nM for the second.

“GAUUGUGAUGGAAACAUCGCAAUCUCUGAAGGAGCGCGUGAAAACGCAGGUAGGUCGCAGGACGACUUUGACAGUGAUGUUGUCG [Ex Arginine A K4 4]” and “AAGUGUGUGGCGGCCGCCACUAGAAUCCAGUGAUGUUGGAAUAAUCAAAUAAAUAAUAAUAAACAUAGGACCGGGCCAUAUAGAA [Same State - Tryptophan B (Freestyle 1)]” are within 1.5-fold of each other in “apparent KD of K4 kissing-loop reporter” value: 180 nM for the first, 139 nM for the second.

Going from “AUGCGCGCGGCGGCCGCCACUCGCAUGAGAGUGAUGUUCUCGCCGUGACCGUAAGGUCGCGGUGUGAGGACCGGGCCGGGCUGCG [#2 Same State - Tryptophan B Attempt #22 (HarryS)]” to “ACAGUCGGCUGUGAUACCAGUCGUAUAACAACAUGUUGCAGUGAUGUUGCGAGAUAGGAUGACCCUUGGCAGCACUCAGUACGAC [Same State Theophylline B GF11]”, the “apparent KD of K4 kissing-loop reporter” value falls from 321 nM to 150 nM (2.1-fold).

“AAAUGAAGGGCUCGCAGUGAUGUUGCGAGACGAGGACCGGUACGGCCGCCACUCGGCCGCUACUUUGACUCGGGCUUUAAGCUAC [Usarusteer]” and “UGAUACCAGACGGCCGCCACUGCGCCAGUCAAUGACUGAGCGCGGUGGCGCUCAGUGAUGUUGAGCAGGACCGGGUCUGGUAUCU [Mod of Eli's TrypBX 8 v5]” are within 1.5-fold of each other in “apparent KD of K4 kissing-loop reporter” value: 138 nM for the first, 147 nM for the second.

In the case of “CCAUCGCUAUUCGAUACCAGCUACUUAGUGAUGUUAAGUUAAAAUCCACUGUAGGUGGAAAGCCCUUGGCAGCGAAUAGUGAUGG [Theophylline B K4 23]”, the “apparent KD of K4 kissing-loop reporter” value is reported as 203 nM.
